# Measurements taken from the supplement of paper PMC9170038.
# Test system: K4 kissing-loop RNA reporter
# Test: apparent KD of K4 kissing-loop reporter; higher = weaker reporter binding
# Conditions: Eterna round: R107; input ligand: arginine 13.2 mM
# Procedure: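 RNA-MaP round R107: designed RNA switches with theophylline, tryptophan, arginine or FMN aptamers are transcribed on-chip within common flanks. They are titrated with a labelled K4 kissing-loop RNA reporter in RNA-MaP buffer (100 mM Tris pH 7.5, 80 mM KCl, 4 mM MgCl2), without ligand or with the indicated ligand. Median apparent KD per design.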
# 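Further: bound reporter read as fluorescence of individual clusters on recovered sequencing chips by microscopy, with normalized cluster intensities fitted with a binding model.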
row,Sequence,apparent KD of K4 kissing-loop reporter [nM]
1,AGUGCACUGUCAGGAUAUGUACAGUGAUGUUGUGUAUGUCAGCAAGUCAAAGACUUGCUCUUCUGUGCAGAAGGGACUGUGUACA [Omei KL FMN B Exc A v5],464
2,GAUAUAGUGAUGUUAUAUACUGAUAGACAACGAGGACCGGUACGGCCGCCACUCGAGAGGGUGAAAAUAAUGAUAAAAUAAUAAU [ExyTryA#1],310
3,UGUACCGAGUUAGGAUAUGUCGUCGAAAGACGAAAUGGAGUGAUGUUCCUUAAACUGCGAAAGCAGACAGAAGGGAUUUGGUACU [FmnBS 29 U11+U77],442
4,AAUGUGCAGGGAAGGAGCGUAGUCCAGUGCUGUUGGAGUUAGAUACCAGUGAUGUUGGUUAUACAGGUAGGUCGCCCUAAAGCGC [whbob_Ex_Arginine_B_2th161],154
5,UCUGUACCGGGAAGGAGCGUGAAUGAGAAUGGAUAUAGUGAUGUUAUGUAUACGAACGAAUCGCAGGUAGGUCGCCCGGAUCCCU [SSArgB.aA],380
6,AUUCACCUGUCGGCCGCCACUGCGUUAGCAGUAUCGGGCAGAAACUUCGCAGUGAUGUUGCGACUCAGGACCGGGACGUUGAGGA [theeternabot_exclusion_KL_Trp_B_29],406
7,AGGGAUGUUAAAGGAUAUAGAAAGUGAUGUUAGAAAGUGAGUGAUGUUGAUGUAAGUGAUGUUAUGUUAGAAGGUUAACAAAACG [ab],120
8,CCGAGCUACAGCGAUACCAGUGUGGAGUGAUGUUCCCUGGUCCGGGCUGUUGUUCCCUUGCGCCCUUGGCAGCGCAGAAGCAGCU [Exclusion Theophylline B GF 14],316
9,CCUAUCUCAUACGAUACCAGUGAAUAACCAGUGAUGUUGGAAUAACCAAGGAAUAUUUUACACCCUUGGCAGCGUAUGGGAUAGG [Ex Theophylline B K4 25],239
10,AUUAAUUUCAGAGGAUAUCGUUAUUUUAUUUAAUUUAUUCAUUUAUGCAGUGAUGUUGCUAUUAUUCGAGAAGGCUGAUUUAUAA [JR_ExcFMNB_Sub006],83.5
11,AAACUUGCAGUGAUGUUGCAAGUAGGUGAUACCAGCAUCGAAAGAUGCCCUUGGCAGCACCAUCUUGCAACAAAGGUGCUGCCAA [(H1)-(H2)-(T1)-(T2)-(H)'-(T)'_Design7],77.4
12,GGAAGACACCUGAGUGAUGUUCGGGUGUGCCGAGGACCGGUACGGCCGCCACUCGGGUGGUACAGUUACUGAUUGGACCGCUAUC [Arbirace],203
13,AUUAAUUUCAGAGGAUAUCGUUAUUUUUUAUAUUUUAUUCAUUUAUGCAGUGAUGUUGCUAUUAUUCGAGAAGGCUGAUUUAUAA [JR_ExcFMNB_Sub004],105
14,AAGGCCACGAGAAGGAGCGUGUUGUGGAGUGAUGUUCCACUGUAGACCUAAGGUCUACAGGCACAGGUAGGUCGCUCGUGGUCAA [Omei KL Arginine B SS A v6],110
15,UUUGUAUAGGGAAGGAGCGUGAAUGAUAAUGAAUAUAGUGAUGUUAUAUAUAAGAAAGAAUCACAGGUAGGUCGCCCGGAGGAGG [SSArgB.J],410
16,AAAUUUAUUAUAUUUGAAUAAAUAUGUGAUACCAGACAUUUAUAAGUCCCUUGGCAGCACAAUGCAGUGAUGUUGCUUAUAAUAA [JR_SSTheophyA_Sub018],110

row,Sequence,apparent KD of K4 kissing-loop reporter [nM]
1,GGAUAGGAUAGAGGAUAUGGAUUAGGCAAGAAUAACUUGUCUUGUAAAUCCAUGAGGAGUGAUGUUCCAGAAGGCUGUCCUAUCG [MatMod 6 - Jieux - Exclusion - FMN B],113
2,UAGUAUAAUCUGUCGUUUACAAUAUUUAGUCAGGAUAUCGUAUAUUCGAGAAGGGACACUAUCUAGUGAUGUUAGAUAUUUCUUU [JR_ExcFMNA_Sub013],78.2
3,AGCAGUGAUGUUGCAUUUAUAAUGACCGAUACCAGUAUCGAUAGAUACCCUUGGCAGCGGAUUUCCGCAACGACUAGGAAACUAG [Ex Theophylline A K4 14],359
4,GUCAUCAGAUCGCAAGAUCUGAUAGCCGAUACCAGCGCGAAGGUGCGCCCUUGGCAGCGGCACCGAGUGAUGUUCGGUCAGACGG [#2 Same State - Theophylline A Attempt #4 (HarryS)],796
5,UUUCGUUGAAGUGAUACCAGACUUGAAAGUGAUGUUUUCCAAUAAUUUAAAUUUUUAGCUGUCCCUUGGCAGCACAGUUUAUUUA [JR_Nu_ExcTheophyB_Sub025],363
6,UCGGCGUACGGGCGGGUAGUGAUGUUGCUCCGAGGACCGGUACGGCCGCCACUCGAGGUACCAGUUCAUAGAACCUGGCACAUCA [theeternabot_exclusion_KL_Trp_A_23],296
7,GGCUCCUACGGAGGAUAUAGUAGCCCAGAGUGAUGUUCUAGGGUGUUUUCCGAUUUAGUCAUUGUUCUAGAAGGCCGUAGGAGCC,177
8,UAAGAGGACCACUGCGAGAGUCCUCGAAUACGAGGACCGGUACGGCCGCCACUCGAUAAUUUGCAGUGAUGUUGCAAGUAAGAAU [BrourdMod 6 - Jieux - Same State Tryptophan A],114
9,GAGGCCAGACGGAGUGAUGUUUCGUAUGAUACCAGCAGCGAAAGCUGCCCUUGGCAGCAUGCCACGGCCUCGGCGGGAAACCGCC,319
10,UGUGGAGAAUAUGAUACCAGCAGUGAGAGAGAGGAAGUAUAGUGAUGUUAUAUGAGAGAAUGCCCUUGGCAGCAUAUGUAGUAGG [SSTheophylB.G],162
11,UAGGGCCCUGGAGGAUAUGAGUCUAGUGAUGUUAGGCGGUCCAUGCGCGUGGCGCGUUAUGCCCUUUUAGAAGGCCAGGGCCCUA [#2 Exclusion - FMN B Attempt #17 (HarryS)],72.8
12,GGAUAGGAUAGAGGAUAUGGGCUAGGCAAGAAUAACUUGUCUAGCAAAUCCAUGAGGAGUGAUGUUCCAGAAGGCUGUCCUAUCG [FmnBX 1 U9],169
13,UAGUCAUACAGAGGAUAUCGUAUGAGUGAUGUUCAUACGACAUAAUCGAGUUGUAUCGAUGUUCGACGAGAAGGCUGUAUGACUA [FMN B Ex t1b],89.6
14,AAUAAGCGCCGAAGGAGCGGCCUCCGAGUGAUGUUCGGUGAGAUGCCAGUGAUGUUGGCCGGCCAGGUAGGUCGCGGCAAAGCUU [Same State Arginine B GF 29],140
15,AGGCACGAGCAAGGAUAUCGAGUAGAGUGAUGUUCUGCCUGGGUUGGCGCGCAAGGGCCUUCCCAGCGAGAAGGUGCUCGUGCCU [#2 Same State - FMN A Attempt #11 (HarryS)],840
16,AAGUCAUAGGCAGGAUAUGCAUUGUAAUAAGGCAAUAUAUACGUAUAGAGUGAUGUUUUGUACCAGGCAGAAGGGCUACAUCAGU [FMN B Excl V10 (+5A/U)],383

# Same assay, conditions: Eterna round: R107; input ligand: none
row,Sequence,apparent KD of K4 kissing-loop reporter [nM]
1,UUAGUCUAGAGAAGGAGCGAGUGAUGUUCGCAUGCUAUGAUGAAUUCAUCAUAGUUUAAUCCUCAGGUAGGUCGCUCUAGACAUU [AK7 Exc Arginine B],418
2,CGGAUGUAGUGAUGUUAUAUUAGAUGUAGACGAGGACCGGUACGGCCGCCACUCGUGAUGGCUGCUAGCGCGUUGCGAGGUUUGC [ExTryptoA.Co],567
3,UUUUGGUUCUGAGGAUAUUCGAAGAAAUAUAGUGAUGUUAUAUAAGGAGGAGGAUGUAGGGAGGAAGGAGAAGGCAGAAGAGGAG [ExFMNB.J],880
4,CGAUCUGAUAGCAGUGAUGUUGCUACAGAUACCAGUCCAGAUCGAGACCCUUGGCAGCUGACCCGGCAUGUGCUAUGGUAGAUCG [Theo A Ex t1],155
5,AAAUAGGUGUGCGAUACCAGCCGGAGUGAUGUUCCGUGUUGUACUGGCUGCACCUACGCCGGCCCUUGGCAGCGUGCUCCAUUUA [Enonin],169
6,AAAGCAUUGAGAAGGAGCGUGACGUGGAGUGAUGUUCCAUUGUAGUAAUAAUUACUACUAUCACAGGUAGGUCGCUCAUUGCUAA [JR_Nu_SSArginiB_Sub024],181
7,GGAUAGGACAGAGGAUAUCUCUGAGGCAAGAAAACUUGUCUCUAAAGAGAUGACUCAGUGAUGUUGAGAGAAGGCUGUCCUAUCG [FmnBX 9 - #SwitchBubble #StaticStem],152
8,AAACCAAUCAGAGGAUAUUCUUUAUUCGACAUAACCUUCUAUAAGGUGCAGUGAUGUUGCAAUAUAGGAGAAGGCUGAUUGACAA [Exclusion FMN B Gf 13],516
9,UGAUAGGACAGAAGGAGCGGAGGUCGUCAAAGACGACCAAUACGUUAAAUAGGAGUGAUGUUCCAGGUAGGUCGCUGUCCUAUCU [ArgBX 30 #SwitchBubble #StaticStem],123
10,GUCCCAGUGAUGUUGGUAGGCGGGCGGGAUACCAGCGGAGACUCACGCCCUUGGCAGCCCACAUAUCCCGCGUAGGGAUUAGCCC [Same State - Theophylline A (Freestyle 23)],316
11,AGUGCACUGUCAGGAUAUGUACAGUGAUGUUGUGUAUGUCAGCAAGUCAAAGACUUGCUCUUCUGUGCAGAAGGGACUGUGUACA [Omei KL FMN B Exc A v5],628
12,GAUAUAGUGAUGUUAUAUACUGAUAGACAACGAGGACCGGUACGGCCGCCACUCGAGAGGGUGAAAAUAAUGAUAAAAUAAUAAU [ExyTryA#1],359
13,UGUACCGAGUUAGGAUAUGUCGUCGAAAGACGAAAUGGAGUGAUGUUCCUUAAACUGCGAAAGCAGACAGAAGGGAUUUGGUACU [FmnBS 29 U11+U77],412
14,AAUGUGCAGGGAAGGAGCGUAGUCCAGUGCUGUUGGAGUUAGAUACCAGUGAUGUUGGUUAUACAGGUAGGUCGCCCUAAAGCGC [whbob_Ex_Arginine_B_2th161],140
15,UCUGUACCGGGAAGGAGCGUGAAUGAGAAUGGAUAUAGUGAUGUUAUGUAUACGAACGAAUCGCAGGUAGGUCGCCCGGAUCCCU [SSArgB.aA],653
16,AUUCACCUGUCGGCCGCCACUGCGUUAGCAGUAUCGGGCAGAAACUUCGCAGUGAUGUUGCGACUCAGGACCGGGACGUUGAGGA [theeternabot_exclusion_KL_Trp_B_29],468
17,AGGGAUGUUAAAGGAUAUAGAAAGUGAUGUUAGAAAGUGAGUGAUGUUGAUGUAAGUGAUGUUAUGUUAGAAGGUUAACAAAACG [ab],200
18,CCGAGCUACAGCGAUACCAGUGUGGAGUGAUGUUCCCUGGUCCGGGCUGUUGUUCCCUUGCGCCCUUGGCAGCGCAGAAGCAGCU [Exclusion Theophylline B GF 14],367
19,CCUAUCUCAUACGAUACCAGUGAAUAACCAGUGAUGUUGGAAUAACCAAGGAAUAUUUUACACCCUUGGCAGCGUAUGGGAUAGG [Ex Theophylline B K4 25],305
20,AUUAAUUUCAGAGGAUAUCGUUAUUUUAUUUAAUUUAUUCAUUUAUGCAGUGAUGUUGCUAUUAUUCGAGAAGGCUGAUUUAUAA [JR_ExcFMNB_Sub006],34
21,AAACUUGCAGUGAUGUUGCAAGUAGGUGAUACCAGCAUCGAAAGAUGCCCUUGGCAGCACCAUCUUGCAACAAAGGUGCUGCCAA [(H1)-(H2)-(T1)-(T2)-(H)'-(T)'_Design7],88.2
